These are literature values, as cited in publication PMC3491057, “Proliferating Cell Nuclear Antigen (PCNA) Interactions in Solution Studied by NMR” (PLoS ONE, 2012).

The target of series [1] is p21 (p2120) 141-160 (Homo sapiens) (UniProt P38936).
For series [2], the target named is p21 (p2122) 139-160 (Homo sapiens) (UniProt P38936).
A further series has as its target Fen-1 (Homo sapiens) (UniProt P39748). Briefly: SPR. On the technique in general: In SPR one partner is held on a chip, and binding of the other changes the refractive index at the surface.
The target of series [3] is p21 87-164 (Homo sapiens) (UniProt P38936).
Chain of p21 87-164 (Homo sapiens) (P38936 87-164): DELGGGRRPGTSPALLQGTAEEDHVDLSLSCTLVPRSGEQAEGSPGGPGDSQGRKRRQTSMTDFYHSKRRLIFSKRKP

Chain of PCNA (P12004 whole entry): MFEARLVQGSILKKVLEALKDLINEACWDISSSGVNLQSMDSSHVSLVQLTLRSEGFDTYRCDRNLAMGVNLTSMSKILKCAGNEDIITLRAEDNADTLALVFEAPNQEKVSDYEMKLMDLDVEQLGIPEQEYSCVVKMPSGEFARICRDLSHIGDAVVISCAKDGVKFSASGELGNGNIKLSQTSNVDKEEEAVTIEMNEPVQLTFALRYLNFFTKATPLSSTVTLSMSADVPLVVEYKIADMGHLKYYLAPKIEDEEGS
Chain of Fen-1 (Homo sapiens) (P39748 whole entry): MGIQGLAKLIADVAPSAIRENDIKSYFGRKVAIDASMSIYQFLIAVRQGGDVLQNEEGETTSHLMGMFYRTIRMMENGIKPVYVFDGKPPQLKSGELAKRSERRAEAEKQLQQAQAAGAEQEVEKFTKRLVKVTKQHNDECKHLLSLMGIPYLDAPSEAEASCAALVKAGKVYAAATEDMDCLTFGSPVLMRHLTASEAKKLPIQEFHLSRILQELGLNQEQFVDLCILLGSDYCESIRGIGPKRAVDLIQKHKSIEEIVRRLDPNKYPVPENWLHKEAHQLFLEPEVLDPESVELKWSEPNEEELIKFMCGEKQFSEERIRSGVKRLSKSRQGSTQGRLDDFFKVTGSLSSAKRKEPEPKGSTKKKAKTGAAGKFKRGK
Chain of p21 (p2122) 139-160 (Homo sapiens) (P38936 139-160): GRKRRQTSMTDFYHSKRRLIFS
Chain of p21 (p2120) 141-160 (Homo sapiens) (P38936 141-160): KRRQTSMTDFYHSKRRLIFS

As usually defined, the Kd is a measure of binding affinity in units of concentration. For PCNA (from UniProt P12004), the dissociation constant Kd is 88 nM in series [1], 83 nM in series [2], 60 nM in the series with Fen-1 (Homo sapiens) and 15 nM in series [3].
